According to patent publication US10829799 (UNIVERSITY COURT OF THE UNIVERSITY OF DUNDEE, dated 2020):
Residue numbers refer to the chain shown, from its start. One block for each binder: values may come before it.

How the values were obtained:
[1] = molecular target: T1, UBA7 (ISG15 E1; His-tagged human UBA7) (human, UniProt P41226 1-1012); assay: covalent activity-based labelling, SDS-PAGE (FIG. 3E)
T1 construct: not shown: N-terminal 6xHis tag of the pFastBacHTB vector
T1 sequence (looked up): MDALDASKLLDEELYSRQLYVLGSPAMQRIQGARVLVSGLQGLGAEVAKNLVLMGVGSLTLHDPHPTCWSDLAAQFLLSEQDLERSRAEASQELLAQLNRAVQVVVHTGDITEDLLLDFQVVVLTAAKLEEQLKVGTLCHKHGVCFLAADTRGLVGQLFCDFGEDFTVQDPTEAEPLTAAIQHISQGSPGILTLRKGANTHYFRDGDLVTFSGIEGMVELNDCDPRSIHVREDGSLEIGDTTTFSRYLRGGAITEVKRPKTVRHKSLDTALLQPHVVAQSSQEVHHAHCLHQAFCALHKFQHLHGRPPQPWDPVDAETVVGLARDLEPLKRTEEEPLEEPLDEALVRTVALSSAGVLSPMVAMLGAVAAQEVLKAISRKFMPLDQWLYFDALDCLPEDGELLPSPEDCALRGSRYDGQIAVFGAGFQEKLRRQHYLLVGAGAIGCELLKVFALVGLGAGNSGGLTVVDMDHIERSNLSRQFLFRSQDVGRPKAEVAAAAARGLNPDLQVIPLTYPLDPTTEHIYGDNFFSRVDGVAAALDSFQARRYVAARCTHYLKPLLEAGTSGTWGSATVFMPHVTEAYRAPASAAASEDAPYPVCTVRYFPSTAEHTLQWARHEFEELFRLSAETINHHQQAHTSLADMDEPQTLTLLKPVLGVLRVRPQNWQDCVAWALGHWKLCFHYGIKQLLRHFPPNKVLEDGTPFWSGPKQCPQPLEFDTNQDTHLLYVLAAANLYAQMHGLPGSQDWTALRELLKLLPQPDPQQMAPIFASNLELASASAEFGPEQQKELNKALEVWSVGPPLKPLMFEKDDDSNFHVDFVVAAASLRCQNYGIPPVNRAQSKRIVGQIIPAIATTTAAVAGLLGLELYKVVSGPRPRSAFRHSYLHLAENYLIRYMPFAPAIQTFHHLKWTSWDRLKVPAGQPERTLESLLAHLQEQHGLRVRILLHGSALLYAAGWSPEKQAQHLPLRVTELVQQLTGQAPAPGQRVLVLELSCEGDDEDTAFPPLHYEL
Experimental: (§1) E2 probes (14 μM) were mixed with E1 enzyme (3.5 μM) and diluted 10× reaction buffer (500 mM Na_2HPO_4 pH 8) or 10×Ub-ATP buffer (500 mM Na_2HPO_4 pH 8, 20 μM ubiquitin, 20 mM ATP) to a final volume of 15-50 μL. Reactions were incubated at 30° C. and 15 μL aliquots were taken at 1 and 5 h time points which were quenched with 5 μL of reducing SDS-gel loading buffer (NuPAGE LDS loading buffer (4×), 715 mM 2-mercaptoethanol). The quenched reaction solutions were boiled for 5 minute at 100° C. and then 4 μL was analysed by SDS-PAGE (NuPAGE Bis-Tris, 4-12%).

[2] = molecular target: T2, endogenous UBA1 in HEK293 protein extract (human, UniProt P22314 2-1058, limits assumed); assay: probe (25 uM) in HEK293 extract (125 ug), 3 h at 30 C, western blot
T2 construct: In a cell lysate, identified by anti-UBA1 blot and molecular weight
T2 sequence (looked up): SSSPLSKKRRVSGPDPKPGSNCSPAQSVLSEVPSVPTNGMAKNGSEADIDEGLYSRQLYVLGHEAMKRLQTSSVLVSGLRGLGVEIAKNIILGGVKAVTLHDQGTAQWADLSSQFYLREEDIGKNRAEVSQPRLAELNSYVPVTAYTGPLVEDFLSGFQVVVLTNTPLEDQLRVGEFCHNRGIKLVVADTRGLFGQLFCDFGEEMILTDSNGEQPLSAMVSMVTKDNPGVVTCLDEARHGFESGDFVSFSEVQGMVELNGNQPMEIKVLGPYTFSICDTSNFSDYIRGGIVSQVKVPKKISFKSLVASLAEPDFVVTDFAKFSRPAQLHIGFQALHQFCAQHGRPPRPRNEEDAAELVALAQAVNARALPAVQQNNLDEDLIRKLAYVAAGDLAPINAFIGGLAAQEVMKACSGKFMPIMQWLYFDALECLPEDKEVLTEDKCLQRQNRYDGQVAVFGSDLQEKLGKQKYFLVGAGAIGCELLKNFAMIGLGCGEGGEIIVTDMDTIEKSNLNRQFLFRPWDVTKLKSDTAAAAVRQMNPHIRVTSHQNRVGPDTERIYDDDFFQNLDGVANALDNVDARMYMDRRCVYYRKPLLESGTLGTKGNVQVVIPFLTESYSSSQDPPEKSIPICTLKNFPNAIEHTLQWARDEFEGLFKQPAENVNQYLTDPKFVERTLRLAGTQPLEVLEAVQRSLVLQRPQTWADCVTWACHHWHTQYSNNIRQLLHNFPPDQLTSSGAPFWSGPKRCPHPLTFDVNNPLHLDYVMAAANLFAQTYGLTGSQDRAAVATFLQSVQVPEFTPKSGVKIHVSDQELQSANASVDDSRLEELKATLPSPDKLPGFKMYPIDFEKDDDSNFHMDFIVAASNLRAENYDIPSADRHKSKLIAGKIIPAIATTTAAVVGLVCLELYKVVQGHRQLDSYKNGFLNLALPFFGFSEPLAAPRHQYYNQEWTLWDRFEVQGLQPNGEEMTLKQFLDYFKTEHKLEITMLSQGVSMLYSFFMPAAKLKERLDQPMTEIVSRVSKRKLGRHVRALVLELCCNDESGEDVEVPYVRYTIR
Experimental: Labelling was quenched by the addition of 1 part 4×LDS loading buffer (Life Technologies) supplemented with 715 mM 2-mercaptoethanol (BME) to 3 parts probe-treated protein extract. Proteins were resolved by SDS-PAGE (10%) and transferred to nitrocellulose membrane (20 V for 40-60 min) by semi-dry transfer using a Novex Semi-dry device (Life Technologies). Membranes were blocked by incubation with 5% milk powder in phosphate buffered saline+0.1% Tween 20 (PBST) for 1 h. His-tagged species were probed with 1:10000 anti-His primary antibody (Clontech) in PBST+5% milk powder for 30 min at room temperature. Detection was carried out by incubation with 1:2500 anti-mouse-HRP conjugated antibody (Cell Signalling Technologies) in PBST+5% milk powder for 1 h at room temperature. ECL Prime substrate (GE Life Sciences) was used for visualization in accordance with the manufacturers protocol. Probing for UBA1 was carried out with anti-UBA1 primary antibody (Sigma E3152) and incubated for 1 h at room temperature. Detection was carried out by incubation with 1:15000 anti-mouse-HRP conjugated antibody (Cell Signalling Technologies) in PBST+5% milk powder for 1 h at room temperature.
We next tested whether E2 probes could label endogenous proteins in a complex proteome. We prepared additional thioacrylonitrile and thiomethyl acrylate probes built on UBE2D1, UBE2D2, UBE2D3 and UBE2H. […] UBE2H was chosen as it only has a single catalytic cysteine. Human embryonic kidney cell (HEK293) extracts (125 μg) were incubated with empirically determined probe concentrations (5-25 μM).

[3] = molecular target: T3, human Ub E1 activating enzyme UBA1 (recombinant, wild type) (human, UniProt P22314 1-1058); assay: covalent activity-based labelling, UBA1 3.5 uM with 4 eq. of probe, 30 C, reducing SDS-PAGE
T3 construct: Catalytic cysteine C632
T3 sequence (looked up): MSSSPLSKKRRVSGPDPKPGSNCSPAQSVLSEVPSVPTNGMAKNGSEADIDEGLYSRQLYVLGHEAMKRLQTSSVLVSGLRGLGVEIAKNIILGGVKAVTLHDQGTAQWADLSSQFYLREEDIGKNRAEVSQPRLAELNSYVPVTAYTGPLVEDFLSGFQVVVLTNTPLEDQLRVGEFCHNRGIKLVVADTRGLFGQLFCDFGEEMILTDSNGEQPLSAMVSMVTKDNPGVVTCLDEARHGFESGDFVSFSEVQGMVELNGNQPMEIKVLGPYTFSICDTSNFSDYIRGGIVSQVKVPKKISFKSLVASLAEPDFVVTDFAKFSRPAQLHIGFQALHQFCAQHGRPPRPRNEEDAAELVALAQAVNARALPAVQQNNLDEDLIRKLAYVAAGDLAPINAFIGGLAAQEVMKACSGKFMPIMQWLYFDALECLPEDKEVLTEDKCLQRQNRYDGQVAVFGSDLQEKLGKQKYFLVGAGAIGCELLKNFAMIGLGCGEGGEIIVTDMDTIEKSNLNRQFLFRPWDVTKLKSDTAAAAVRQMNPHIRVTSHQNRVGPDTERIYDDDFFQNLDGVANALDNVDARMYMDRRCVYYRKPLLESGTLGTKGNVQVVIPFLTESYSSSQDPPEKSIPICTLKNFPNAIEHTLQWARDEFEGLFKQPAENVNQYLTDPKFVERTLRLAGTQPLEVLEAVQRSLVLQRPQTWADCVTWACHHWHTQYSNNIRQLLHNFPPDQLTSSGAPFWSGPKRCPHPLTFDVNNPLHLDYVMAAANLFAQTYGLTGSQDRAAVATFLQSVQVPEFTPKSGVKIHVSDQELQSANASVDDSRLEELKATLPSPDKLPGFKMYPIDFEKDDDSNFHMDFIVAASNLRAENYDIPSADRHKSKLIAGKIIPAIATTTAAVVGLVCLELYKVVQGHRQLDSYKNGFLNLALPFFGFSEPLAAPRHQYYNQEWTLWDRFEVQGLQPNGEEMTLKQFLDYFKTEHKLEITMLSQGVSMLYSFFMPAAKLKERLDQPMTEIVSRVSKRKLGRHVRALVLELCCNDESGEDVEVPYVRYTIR
Experimental: as §1

[4] = molecular target: T3, human Ub E1 activating enzyme UBA1 …; assay: covalent activity-based labelling of UBA1, reducing SDS-PAGE
Experimental: as §1

[5] = molecular target: T3, human Ub E1 activating enzyme UBA1 …; assay: covalent activity-based labelling, SDS-PAGE (FIG. 3B)
Experimental: as §1

- binding result [5]: binds
B5: UBE2L3**-=CN (enzyme)
chain: MGSSHHHHHHSSGLEVLFQGPGSMAASRRLMKELEEIRKSGMKNFRNIQVDEANLLTWQGLIVPDNPPYDKGAFRIEINFPAEYPFKPPKITFKTKIYHPNIDEKGQVCLPVIAAENWKPATKTDQVIQSLIALVNDPQPEHPLRADLAEEYSKDRKKFSKNAEEFTKKYGEKRPVD
modifications: catalytic cysteine labelled with TDMA 1: thioacrylonitrile warhead
notes: also called UBE2L3** thioacrylonitrile probe

- binding result [2]: binds
B6: UBE2H thioacrylonitrile probe (enzyme)
chain: MGSSHHHHHHSSGLEVLFQGPGSMSSPSPGKRRMDTDVVKLIESKHEVTILGGLNEFVVKFYGPQGTPYEGGVWKVRVDLPDKYPFKSPSIGFMNKIFHPNIDEASGTVCLDVINQTWTALYDLTNIFESFLPQLLAYPNPIDPLNGDAAAMYLHRPEEYKQKIKEYIQKYATEEALKEQEEGTGDSSSESSMSDFSEDEAQDMEL
modifications: single catalytic cysteine labelled with TDMA 1 (thioacrylonitrile)
notes: also called UBE2H-=CN

- binding result [2]: binds
B7: UBE2H thiomethyl acrylate probe (enzyme)
chain: B6 chain
modifications: single catalytic cysteine labelled with TDMA 2 (thiomethyl acrylate)
notes: also called UBE2H-VME

Second part, the binder before the results:

B1: UBE2L6*-=CN (enzyme)
chain: MGSSHHHHHHSSGLEVLFQGPGSMMASMRVVKELEDLQKKPPPYLRNLSSDDANVLVWHALLLPDQPPYHLKAFNLRISFPPEYPFKPPMIKFTTKIYHPNVDENGQICLPIISSENWKPSTKTSQVLEALNVLVNRPNIREPLRMDLADLLTQNPELFRKNAEEFTLRFGVDRPS
modifications: catalytic cysteine labelled with TDMA 1: thioacrylonitrile warhead
- binding result [1]: binds

B2: UBE2L6**-=CN (enzyme)
chain: B1 chain with S114A
modifications: catalytic cysteine labelled with TDMA 1: thioacrylonitrile warhead
- binding result [1]: binds

B3: UBE2N-=CN (His-tagged UBE2N labelled with (E)-3-tosylacrylonitrile 1; thioacrylonitrile probe) (enzyme)
chain: MGSSHHHHHHSSGLEVLFQGPGSAGLPRRIIKETQRLLAEPVPGIKAEPDESNARYFHVVIAGPQDSPFEGGTFKLELFLPEEYPMAAPKVRFMTKIYHPNVDKLGRICLDILKDKWSPALQIRTVLLSIQALLSAPNPDDPLANDVAEQWKTNEAQAIETARAWTRLYAMNNI
modifications: cysteine labelled with TDMA 1: thioacrylonitrile (activated vinylsulfide) warhead
notes: E2-based activity-based probe; forms a covalent bisthioether with the catalytic cysteine of the E1; also called Ubc13-=CN
- binding result [2]: binds
- binding result [3]: binds

B4: UBE2N-VME (His-tagged UBE2N labelled with (E)-methyl 3-tosylacrylate 2; thiomethyl acrylate probe) (enzyme)
chain: B3 chain
modifications: cysteine labelled with TDMA 2: thiomethyl acrylate warhead
notes: also called Ubc13-VME
- binding result [2]: binds
- binding result [4]: binds
